Assay results: the supplement of paper PMC9170038

Key:
[1] = tested on: MS2 coat protein; assay: apparent KD of MS2 coat protein, switch ON state; designed switch direction (-1 OFF switch, 1 ON switch): -1; higher = weaker reporter binding; details: FMN input: 0 or 200 uM; Eterna round: R93 (includes R88 designs)
How it was run: (§1)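 Designed RNA switches were transcribed on-chip from Illumina sequencing clusters. They were then titrated with SNAP-549-labelled MS2 coat protein (twofold steps, 0.7 or 1.5 nM to 3 µM; 0.8–1.5 h to 10–20 min per step) in 100 mM Tris-HCl pH 7.5, 80 mM KCl, 4 mM MgCl2, without or with constant ligand. Apparent KD is the per-design median of normalised cluster binding-curve fits.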

[2] = tested on: MS2 coat protein; assay: apparent KD of MS2 coat protein, switch OFF state (with FMN for OFF switches, without FMN for ON switches); designed switch direction (-1 OFF switch, 1 ON switch): -1; higher = weaker reporter binding; details: FMN input: 0 or 200 uM; Eterna round: R93 (includes R88 designs)
How it was run: as §1

AAGAUGUUAGGAUAUGCUGCUCGUCACAAAAGUGAUGAGUAGCAGAAGGGACAUGAGGAUCACCCAUGUAAAGA [JL eternac mod 6]
apparent KD of MS2 coat protein [1]: 45.5 nM | apparent KD of MS2 coat protein [2]: 34.8 nM

AAGCUGGUAGGAUAUACUAGGGCGACUAAUGCGCCGAUAGGACAUGAGGAUCACCCAUGUAGAAGGGCCAGAAA [JR_Exc002_Sub406]
apparent KD of MS2 coat protein [1]: 187 nM | apparent KD of MS2 coat protein [2]: 70 nM

AAGGAGUGAGGAUAUACAUGAGGAUCACCCAUGUUGAUGGAAACGUCAGAGAAAGAAGGUAGAAGGCACAAGAA [JR_Exclusion3_Sub6]
apparent KD of MS2 coat protein [1]: 51.2 nM | apparent KD of MS2 coat protein [2]: 54.1 nM

AAGGGACAUGAGGAUCACCCAUGUAAGGAUAUGCUAUGGAAAAUAAAAAUAAAACAUAGCAGAAGGUACAAAAA [Denovo 15]
apparent KD of MS2 coat protein [1]: 124 nM | apparent KD of MS2 coat protein [2]: 135 nM

AAGGGACAUGAGGAUCACCCAUGUCAGGAUAUGAUGCGAAUAAAGAAAGAAUAAAGCAUCAGAAGGGACACCAA [Mat - Exclusion 1 - Eli mod - D64]
apparent KD of MS2 coat protein [1]: 23 nM | apparent KD of MS2 coat protein [2]: 44.6 nM

AAGGGACAUGAGGAUCACCCAUGUCAGGAUAUGCUAUGGAAAAUAAAAAUAAAACAUAGCAGAAGGGACACCAA [64%, Meechl, 3]
apparent KD of MS2 coat protein [1]: 25.9 nM | apparent KD of MS2 coat protein [2]: 40.3 nM

AAUAAACAUGAGGAUCACCCAUGUAAGGAUAUCGAAAAAAAAAUAAACAAAAAAAAAACGAGAAGGUACAAAAA [Exclusion 1 design 2]
apparent KD of MS2 coat protein [1]: 24.1 nM | apparent KD of MS2 coat protein [2]: 27 nM

AAUAAACAUGAGGAUCACCCAUGUCAGGAUAUGCAUCUAACAUAAUAACAUAAAUACAGCAGAAGGGACUAAUA [JR_Exc001_Sub601]
apparent KD of MS2 coat protein [1]: 30.3 nM | apparent KD of MS2 coat protein [2]: 20.6 nM

AAUCCACAUGAGGAUCACCCAUGUGAGGAUAUCGUGCAGAAAAAAAAAAAAAACUGCACGAGAAGGCACAUGGA
apparent KD of MS2 coat protein [1]: 35.1 nM | apparent KD of MS2 coat protein [2]: 20.2 nM

ACAAAUGUAGGAUAUACAUGAGGAUCACCCAUGUGGCACAAACAGCAAACAAGACAAAGUAGAAGGACAACGAC [JR_Exc003-Sub901]
apparent KD of MS2 coat protein [1]: 24.9 nM | apparent KD of MS2 coat protein [2]: 28.4 nM

ACAGCGUGAGGAUAUACAUGAGGAUCACCCAUGUGAAACAGGAAAAACUGAAAGACAUGUAGAAGGCACGCUGA [Exclusion 3.3 (Janderson's 'Tweaking Eli' some more )]
apparent KD of MS2 coat protein [1]: 263 nM | apparent KD of MS2 coat protein [2]: 28.7 nM

ACAGUUACAGGAUAUACAUGGAAAAAUAAAAAUAAAAAACUACAUGAGGAUCACCCAUGUAGAAGGGUAACUGA [Ex2 Design 197: Random 12F]
apparent KD of MS2 coat protein [1]: 42.9 nM | apparent KD of MS2 coat protein [2]: 86.9 nM

ACCUAGUCAGGAUAUACAAACAUGUCAAAAGACGUGAAAAAACAUGAGGAUCACCCAUGUAGAAGGGACUAGGA [Mat - Exclusion 2 - JL mod - D22]
apparent KD of MS2 coat protein [1]: 20.5 nM | apparent KD of MS2 coat protein [2]: 19.7 nM

ACGUAGAGAGGAUAUACGAACAUGUCAAAAGACGUGAAGGGACAUGAGGAUCACCCAUGUAGAAGGCUCUACGA [Mat - Exclusion 2 - JL mod - D8]
apparent KD of MS2 coat protein [1]: 54.8 nM | apparent KD of MS2 coat protein [2]: 172 nM

ACUAAACGAGGAUAUACUGACAAACCUCAAACAUACAUCAAACAUGAGGAUCACCCAUGUAGAAGGCGUAAACU [JR_Exc002_Sub401]
apparent KD of MS2 coat protein [1]: 37.6 nM | apparent KD of MS2 coat protein [2]: 19.6 nM

ACUAGUACAGGAUAUACAUGAGGAUCACCCAUGUGAGAAUUAAGUGGCGUACCACAAAGUAGAAGGGUACUAGA [Mat - Exclusion 3 - JL mod - D14]
apparent KD of MS2 coat protein [1]: 34.3 nM | apparent KD of MS2 coat protein [2]: 152 nM

AGAAAACAUGAGGAUCACCCAUGUCAGGAUAUACAAAAUAAAAUAAAAAUAAAAUAAAGUAGAAGGGACAAAGA [Mat - Same state - Mayanna Mod - D109]
apparent KD of MS2 coat protein [1]: 33.5 nM | apparent KD of MS2 coat protein [2]: 42.7 nM

AGAAAACAUGAGGAUCACCCAUGUGAGGAUAUCGAUGUCCAAAAAAAAGUGCGGGACUCGAGAAGGCACUUGGA [Erbelaed]
apparent KD of MS2 coat protein [1]: 46.6 nM | apparent KD of MS2 coat protein [2]: 32.5 nM

AGAAAGUCAGGAUAUGCAGAAAAAAAAACGAAAAAAAAACUGCAGAAGGGACAUGAGGAUCACCCAUGUUAAAG [Mat - Exclusion 4 - Mayanna - D129]
apparent KD of MS2 coat protein [1]: 46.6 nM | apparent KD of MS2 coat protein [2]: 34.9 nM

AGAAAGUUAGGAUAUACAGAUAAAAAAACGAAAAAAAAUCUGUAGAAGGAACAUGAGGAUCACCCAUGUAAAGA [Mat - Exclusion 4 - Mayanna - D105]
apparent KD of MS2 coat protein [1]: 28.7 nM | apparent KD of MS2 coat protein [2]: 23.2 nM

AGAAUACAUGAGGAUCACCCAUGUGAGGAUAUCCAAAGAAAAAGAAAAGAAAAGAAAAGGAGAAGGCACAAAAG [EX 1 May 13]
apparent KD of MS2 coat protein [1]: 78.7 nM | apparent KD of MS2 coat protein [2]: 67.3 nM

AGAAUACAUGAGGAUCACCCAUGUGAGGAUAUGCAAAUAAAAAUAAAAUAAAAUAAAUGCAGAAGGCACGAAAG [EX 1 May 22]
apparent KD of MS2 coat protein [1]: 35.9 nM | apparent KD of MS2 coat protein [2]: 58.2 nM
